These results are taken from patent US20240076389A1 (NATIONAL RESEARCH COUNCIL OF CANADA, published 2024).

The target in experiment [1] is T1, rhMER-ECD (human, UniProt Q12866 21-505).
T1 construct: extracellular domain
T1 sequence (looked up): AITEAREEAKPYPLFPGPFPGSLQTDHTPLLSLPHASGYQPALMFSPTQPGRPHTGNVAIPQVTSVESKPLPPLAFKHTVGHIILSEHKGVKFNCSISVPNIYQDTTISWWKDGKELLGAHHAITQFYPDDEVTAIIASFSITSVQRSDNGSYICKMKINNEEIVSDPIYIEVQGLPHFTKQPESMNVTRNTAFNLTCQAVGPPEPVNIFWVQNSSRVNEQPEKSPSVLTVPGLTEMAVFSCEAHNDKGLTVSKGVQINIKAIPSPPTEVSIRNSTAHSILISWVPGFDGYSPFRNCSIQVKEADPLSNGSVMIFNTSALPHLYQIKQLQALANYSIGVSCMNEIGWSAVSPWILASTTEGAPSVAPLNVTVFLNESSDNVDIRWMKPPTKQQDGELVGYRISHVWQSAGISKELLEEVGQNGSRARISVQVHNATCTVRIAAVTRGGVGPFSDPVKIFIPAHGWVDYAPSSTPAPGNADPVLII
The experiment in a line: ELISA on coated antigen. As for the experimental part:
(§1) To evaluate the cross-reactivity of the mAb to other members of the TAM receptor tyrosine kinase subfamily, binding of the mAb to rhAXL-ECD, rhMER-ECD, rhTyro-3 and BSA (negative control) was measured by ELISA. 96-w half-area plates (Costar) were coated with 25 μl of rhAXL-ECD, rhMER-ECD, rhTyro-3 or BSA at 5 μg/ml in PBS and incubated overnight at 4° C. Microplates were washed 3 times with PBS, blocked with PBS-BSA 1%, and 25 μl of a 10 μg/ml diluted in PBS-BSA 1% were added and incubated at 37° C., 5% CO₂ for 2 hours. Plates were washed 4 times with PBS-TWEEN™ 20 0.05% and incubated for one hour at 37° C., 5% CO₂ with 25 μl of secondary antibody alkaline phosphatase conjugated F(ab)′2 goat anti-mouse IgG (H+L) (Jackson Immunoresearch) diluted 1/5000 in blocking buffer. After 4 washes with PBS-Tween 20 0.05%, 25 μl of a 1 mg/ml pN PP substrate solution was added and further incubated for one hour at 37° C. OD405 nm measurements were done using a microplate reader (Spectramax 340 PC, Molecular Devices).

For experiment [2], the target named is T2, BSA (UniProt P02769 25-607).
T2 construct: also called BSA (negative control)
Kind of experiment: ELISA on coated antigen. The method, then: as §1

Experiment [3] concerns the target T3, rhTyro-3 (human, UniProt Q06418 41-429).
T3 construct: extracellular domain
T3 sequence (looked up): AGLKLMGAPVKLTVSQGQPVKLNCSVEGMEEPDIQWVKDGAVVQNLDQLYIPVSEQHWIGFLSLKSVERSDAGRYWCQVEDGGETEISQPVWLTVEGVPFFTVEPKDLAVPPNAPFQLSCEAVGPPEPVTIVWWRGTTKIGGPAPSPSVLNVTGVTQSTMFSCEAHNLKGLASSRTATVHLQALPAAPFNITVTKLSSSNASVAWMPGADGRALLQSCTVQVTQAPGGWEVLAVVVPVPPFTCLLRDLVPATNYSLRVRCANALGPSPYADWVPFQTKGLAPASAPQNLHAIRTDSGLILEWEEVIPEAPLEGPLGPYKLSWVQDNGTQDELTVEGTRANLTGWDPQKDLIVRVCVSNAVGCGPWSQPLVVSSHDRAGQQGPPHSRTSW
The experiment in a line: ELISA on coated antigen. The method, then:
as §1

In experiment [4] the target is T4, AXL fragment # 3 (AXL amino acids 26-138, IgL1).
T4 chain: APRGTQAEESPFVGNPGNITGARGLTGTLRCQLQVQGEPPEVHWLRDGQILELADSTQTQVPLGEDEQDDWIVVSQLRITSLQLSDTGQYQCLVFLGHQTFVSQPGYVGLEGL
The experiment in a line: yeast surface display of hAXL fragments (Aga2-HA-(hAXL)-MYC), whole yeast cell ELISA, signal normalised to anti-MYC. From the text:
(§2) Epitope mapping. […] The YSD vector (pPNL6) was from The Pacific Northwest National Laboratory, USA.
(In an ELISA, binding on a coated surface is turned into a signal by an enzyme label.)

For experiment [5], the target named is T5, AXL fragment # 6 (AXL amino acids 26-226, IgL1+IgL2).
T5 chain: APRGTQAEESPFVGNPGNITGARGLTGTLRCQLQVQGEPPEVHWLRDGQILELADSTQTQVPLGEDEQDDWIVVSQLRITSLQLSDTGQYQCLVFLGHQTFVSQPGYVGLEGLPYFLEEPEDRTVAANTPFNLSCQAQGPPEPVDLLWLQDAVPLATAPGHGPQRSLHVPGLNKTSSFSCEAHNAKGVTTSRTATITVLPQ
The description is as above.
Text: as §2

For experiment [6], the target named is T6, AXL fragment # 9 (AXL amino acids 26-429, IgL1+IgL2+FN III-1+FN III-2).
T6 construct: not shown: Yeast display carrier and tags (Aga2p, HA, MYC and any linkers)
The description is as above.
Text: as §2

T2 sequence (P02769 25-607 limits assumed): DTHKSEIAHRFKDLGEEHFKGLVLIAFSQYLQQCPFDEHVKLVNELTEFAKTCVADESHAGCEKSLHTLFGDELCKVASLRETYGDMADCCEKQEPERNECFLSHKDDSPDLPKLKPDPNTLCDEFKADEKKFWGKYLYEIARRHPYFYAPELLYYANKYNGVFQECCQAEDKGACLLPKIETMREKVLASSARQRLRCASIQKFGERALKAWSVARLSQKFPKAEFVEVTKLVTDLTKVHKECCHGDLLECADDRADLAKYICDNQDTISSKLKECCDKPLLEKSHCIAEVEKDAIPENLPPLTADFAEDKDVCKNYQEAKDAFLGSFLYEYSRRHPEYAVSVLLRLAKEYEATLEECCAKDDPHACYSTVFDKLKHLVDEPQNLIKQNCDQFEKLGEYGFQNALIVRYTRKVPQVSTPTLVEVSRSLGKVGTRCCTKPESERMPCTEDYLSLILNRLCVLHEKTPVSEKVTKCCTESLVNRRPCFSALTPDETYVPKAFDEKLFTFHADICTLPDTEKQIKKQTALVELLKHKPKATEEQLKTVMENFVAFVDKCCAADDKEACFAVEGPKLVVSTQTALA

B1: F107-8D12 (antibody, V domains shown)
VH: QVQLQQPGAELVKPGASVQLSCKASGYTFISFWINWVKQRPGQGLEWMGNIFPGSSSTNYNEKFKSKATLTVDKSSSTAYMQLSSLTSEDSAVYFCARDYYGGSPDYWGQGTTLTVSS
VL: DIVMSQSPSSLAVSAGERVTMSCKSSQSLLNTRTRKNYLAWYQQKPGQSPKLLIYWASTRESGVPDRFTGSGSGTDFTLTISSVQAEDLAVYYCKQSYNLWTFGGGTKLEIK
notes: also called F107-8D12-2; mAb 8D12
For the molecule B1, the binding result is listed as “no binding (tested: 10 µg/ml)” in experiment [1]; “no binding (tested: 10 µg/ml)” in experiment [2]; “no binding (tested: 10 µg/ml)” in experiment [3]; “binds” in experiment [4]; “binds” in experiment [5]; “binds” in experiment [6].

B2: F107-7H5 (antibody, V domains shown)
VH: QVQLQQPGAELVKPGASVKLSCKASGYTFTSYWINWVKQRPGQGLEWIGNIYPDSSSTNYNEKFKSKATLTVDKSSTTAYIQFSSLTSEDSAVYYCTRDTYGGSPDYWGQGTTLTVSS
VL: DIVMSQSPSSLAVSAGEKVTMSCKSSQSLLNSRTRKIYLAWYQQKPGQSPKLLIYWASTRQSGVPDRFTGSGSGTDFTLTISSVQAEDLAVYYCKQSYNLWTFGGGTKLEIK
notes: also called F107-7H5-2; mAb 7H5
As for B2, the binding result in experiment [1] was “no binding (tested: 10 µg/ml)”; in experiment [2] it was “no binding (tested: 10 µg/ml)”; in experiment [3] it was “no binding (tested: 10 µg/ml)”; in experiment [4], “binds”; in experiment [5], “binds”; in experiment [6], “binds”.

B3: F111-5E9 (antibody, V domains shown)
VH: QIQLVQSGPELKKPGETVKISCKASGYTFTKYGMNWVKQAPGKGLKWMGWINTYTGEPTYADDFKGRFAFSLETSASTAYLQINNLTTEDMVTYFCAKGGYYSNPIYPMDYWGQGTSVTVSS
VL: DIQMTQTTSSLSASLGDRVTISCRASQDINNYLNWYQQKPDGTVKLLIYYISRLHSGVPSRFSGSGSGTDYSLTISNLELEDVATYFCQQGNTLPFTFGSGTKLEIK
notes: also called F111-5E9-2; mAb 5E9
For B3, the binding result is on record as “no binding (tested: 10 µg/ml)” in experiment [1]; “no binding (tested: 10 µg/ml)” in experiment [2]; “no binding (tested: 10 µg/ml)” in experiment [3]; “binds” in experiment [5]; “binds” in experiment [6].

B4: F107-10G1 (antibody, V domains shown)
VH: EVNLVESGGGVVKPGASLKLSCEASGFTFSNYGMSWVRQTSDKRLEWVASISGGGGRTYYLDNVKGRFIISRENAKNTLYLQMSSLKSEDTALFYCARGARASYFAMDYWGQGSSVTVSS
VL: VIVMTQSHKFMSTSVGDRVSITCKASQDVTTAVAWYQQKPGQSPKLLIYWASTRHTGVPDRFTGSGSGTDYSLTISNVQTEDLAFYYCQQHFTTPLTFGAGTKLELK
notes: also called F107-10G1-3
On to B4, for which the binding result in experiment [1] is recorded as “no binding (tested: 10 µg/ml)”; in experiment [2] it was “no binding (tested: 10 µg/ml)”; in experiment [3] it was “no binding (tested: 10 µg/ml)”; in experiment [4], “binds”; in experiment [5], “binds”; in experiment [6] it was “binds”.

B5: F111-3C8 (antibody, V domains shown)
VH: QVQLQQPGAELGKPGTSVKLSCKASGYTFTSYWMHWVKRVPGQGLEWIGNINPNSTSADYNEKFKRKATLTVDKSSSTAYMQLSTLTSEDSAVYYCTRPLMGPYWYFDVWGTGTTVTVSS
VL: QIVLTQSPAIMSASPGEKVTISCSASSSVSYMYWYQQKPGSSPKPWIYRTSNLASGVPARFSGSGSGTSYSLTISSMEAEDAATYYCQQYHNYPPTFGGGTKLEIK
notes: also called F111-3C8-2
Turning to B5, the binding result in experiment [1] is recorded as “no binding (tested: 10 µg/ml)”; in experiment [2], “no binding (tested: 10 µg/ml)”; in experiment [3], “no binding (tested: 10 µg/ml)”; in experiment [5], “binds”; in experiment [6] it was “binds”.
